Data from the supplement of paper PMC7125110.
± gives the standard error. Variants at the floor of the assay were thinned out.

B1: glmS ribozyme (parent)
chain: AUAAAAGCGCCAGAACUACAGAAAUGUAGUUGACGAGGAGGAGGUUUAUCGAAUUUUCGGCGGAUGCCUCCAAA

Variants of: B1
Test: self-cleavage kobs at 2500 uM GlcN6P; higher = faster cleavage; RNA array
Conditions: with glucosamine-6-phosphate
Summary of the method: (§1)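 Tiles bearing barcoded ribozyme variants, transcribed in situ by E. coli RNA polymerase on sequenced MiSeq chips, were imaged over ~14 h at 37 °C using a hybridised Cy3 probe. Glucosamine-6-phosphate was supplied at 40 μM to 10 mM in HEPES/KCl/Mg(OAc)2 buffer. kobs came from one- or two-exponential decay fits to normalised per-tile medians, and weighted Michaelis–Menten fits then provided kcat and KM.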

A12G A14U U49C C50G C61U and A15U G37U G43C U56A C68G C71G cannot be ordered by “self-cleavage kobs at 2500 uM GlcN6P” value: < 1e-05 s⁻¹ for the first, < 1e-05 s⁻¹ for the second.

First: A12G A36C G62U
Second: A12U G41U A48U
The “self-cleavage kobs at 2500 uM GlcN6P” value of the first is lower: < 1e-05 s⁻¹ for the first, 7.03e-05 ± 3e-05 s⁻¹ for the second.

Going from A12C A36G C71U to G13U A39C U56G, the “self-cleavage kobs at 2500 uM GlcN6P” value rises from < 1e-05 s⁻¹ to 3.76e-05 ± 1.4e-05 s⁻¹.

Compared with C16A U31C C70A, C16U G32A is higher in “self-cleavage kobs at 2500 uM GlcN6P” value: < 1e-05 s⁻¹ for the first, 0.00201 ± 0.00037 s⁻¹ for the second.

Compared with C16U U57G U65A C70A, A12U G13A G38U is lower in “self-cleavage kobs at 2500 uM GlcN6P” value: 0.000271 ± 0.00013 s⁻¹ for the first, < 1e-05 s⁻¹ for the second.

Compared with A12U C34U G38A C50G, C16A G38C G40C G44U C67A U69C is lower in “self-cleavage kobs at 2500 uM GlcN6P” value: 0.000122 ± 3e-05 s⁻¹ for the first, < 1e-05 s⁻¹ for the second.

A14G A33U C70G and A12G G32A G60U cannot be ordered by “self-cleavage kobs at 2500 uM GlcN6P” value: < 1e-05 s⁻¹ for the first, < 1e-05 s⁻¹ for the second.

A15G U47G U57A C71G and A15U U46C C70G are within error of each other in “self-cleavage kobs at 2500 uM GlcN6P” value: 5.79e-05 ± 2.3e-05 s⁻¹ for the first, 8.21e-05 ± 2.2e-05 s⁻¹ for the second.

Going from A18U to A12G C34A U45A, the “self-cleavage kobs at 2500 uM GlcN6P” value falls from 0.00664 ± 0.0014 s⁻¹ to < 1e-05 s⁻¹.

Compared with A15G G29A A36G, A15C U69G is higher in “self-cleavage kobs at 2500 uM GlcN6P” value: < 1e-05 s⁻¹ for the first, 7.29e-05 ± 2.2e-05 s⁻¹ for the second.

First: C16G U55A C67U C71A
Second: G13U A53G C68U
The “self-cleavage kobs at 2500 uM GlcN6P” value of the first is 2.6-fold lower: 8.06e-05 ± 2.9e-05 s⁻¹ for the first, 0.000212 ± 3.7e-05 s⁻¹ for the second.

First: A15G G32C G37U C70A
Second: C16A U55A G59C C67U C70G
The “self-cleavage kobs at 2500 uM GlcN6P” value of the first is 6.5-fold higher: 0.000633 ± 0.00028 s⁻¹ for the first, 9.74e-05 ± 3.6e-05 s⁻¹ for the second.

First: A14G U46C U54A C71A
Second: G13U C19A C70U
The “self-cleavage kobs at 2500 uM GlcN6P” value of the first is 4.9-fold higher: 0.000844 ± 0.00027 s⁻¹ for the first, 0.000171 ± 2.8e-05 s⁻¹ for the second.

A14C G32U U47C C67G and A12G G32C A36U cannot be ordered by “self-cleavage kobs at 2500 uM GlcN6P” value: < 1e-05 s⁻¹ for the first, < 1e-05 s⁻¹ for the second.

Going from A12G G13C G29A G40A U45C to A15G U46A A48U, the “self-cleavage kobs at 2500 uM GlcN6P” value rises from < 1e-05 s⁻¹ to 5.82e-05 ± 2.3e-05 s⁻¹.

First: G13A A33C A48C
Second: C16G G32U G66A
The “self-cleavage kobs at 2500 uM GlcN6P” value of the first is lower: < 1e-05 s⁻¹ for the first, 0.000109 ± 3.9e-05 s⁻¹ for the second.

G13U U47A C50U and A12G C34U C68A cannot be ordered by “self-cleavage kobs at 2500 uM GlcN6P” value: < 1e-05 s⁻¹ for the first, < 1e-05 s⁻¹ for the second.

Going from C16G G40C U45G to G13A G43A U49C C58A, the “self-cleavage kobs at 2500 uM GlcN6P” value falls from 6.01e-05 ± 2.1e-05 s⁻¹ to < 1e-05 s⁻¹.

Compared with A12G C16U A53C, C16A C50G C67A is 5.3-fold higher in “self-cleavage kobs at 2500 uM GlcN6P” value: 7.22e-05 ± 1.7e-05 s⁻¹ for the first, 0.00038 ± 0.00013 s⁻¹ for the second.

In the case of A12U G32C G40U U45C, the “self-cleavage kobs at 2500 uM GlcN6P” value is reported as < 1e-05 s⁻¹.

Variants of: B1
Test: self-cleavage kobs at 10000 uM GlcN6P; higher = faster cleavage; RNA array
Conditions: with glucosamine-6-phosphate
Summary of the method: as §1

Going from A15U U46C C70G to A12G C34A U45A, the “self-cleavage kobs at 10000 uM GlcN6P” value falls from 3.23e-05 ± 1.5e-05 s⁻¹ to < 1e-05 s⁻¹.

Compared with A15G G29A A36G, C16G U55A C67U C71A is higher in “self-cleavage kobs at 10000 uM GlcN6P” value: < 1e-05 s⁻¹ for the first, 3.71e-05 ± 1.3e-05 s⁻¹ for the second.

In the case of C16G G32U G66A, the “self-cleavage kobs at 10000 uM GlcN6P” value is reported as 0.000209 ± 5.7e-05 s⁻¹.
